The target of test [1] is mature HIV-1 protease bearing drug-resistance mutation L76V (PR_(L76V)) (HIV-1). Put plainly: ITC. (In general: In ITC the heat of successive injections is recorded.)
The target is the same in test [2]. Put plainly: enzyme activity against protease concentration.

The substance “RPB inhibitor (H-Arg-Val-Leu-(r)-Phe-Glu-Ala-Nle-NH2), substrate-analog inhibitor with a reduced peptide bond” displayed a Kd in test [1] of 61 nM.
With “mature HIV-1 protease bearing drug-resistance mutation L76V (PR_(L76V)) (enzyme)”, the Kd in test [2] worked out at 71 nM.

As usually defined, the Kd is the equilibrium constant for the complex coming apart.

Source of the values: PMC3101314.
